Patent US11202818B2, “Methods and compositions for modulating erythropoiesis” (President and Fellows of Harvard College, priority 2016, dated 2021)
“Also recorded” adds a separate entry of the source.

Columns and labels:
[1] = test system: embryonic day 13.5 fetal liver cells; assay: Epo-dependent erythroid colony formation (CFU-e/BFU-e) in MethoCult, fetal liver; assay type: cell-based, mouse
Description: Here, IL-17ra is expressed in the EEP region of the bBM SPRING plot (FIG. 4, Panel a) and its corresponding P2 subset (FIG. 4, Panel n), and to a lesser extent in the CEP/P1 region, in addition to its expression by non-erythroid cells. Both Ryk and mst1r are expressed more selectively, principally within the CEP/P1 region of the erythroid trajectory (FIG. 4, Panels a and n). Wnt5a, MSP and IL-17a were used to stimulate Ryk, mst1r and IL-17ra respectively, and measured their interaction with Epo, an essential erythroid cytokine, using colony formation assays (FIG. 4, Panel c). Epo concentration in blood ranges from 5-10 mU/ml in the basal state, to 10,000 mU/ml in extremely severe anemia The addition of MSP to FL in the presence of mildly elevated Epo concentrations (50 mU/ml, characteristic of mild anemia) was equivalent to a 10-fold increase in Epo concentration, generating over 2 fold the number of CFUe (day 3 unifocal) colonies. However, in the context of high Epo (>100 mU/ml), the addition of MSP was inhibitory. MSP-mediated inhibition was also seen in earlier FL progenitors and in BM progenitors of all stages. […] In summary, MSP, Wnt5a and IL-17a may provide powerful modulation of pre-ETD erythroid progenitors, in a manner that is highly dependent on their developmental stage and background state of progenitor stimulation (stress v. basal).
In bone marrow (BM), 1117ra was expressed by EEPs/P2 and to a lesser extent by CEPs/P1, in addition to non-erythroid cells. Both Ryk and Mst1r are expressed more selectively, though not exclusively, by EEP and CEP cells (FIG. 15, Panel a, and FIG. 16, Panels a and b). Ryk, Mst1r and IL-17Ra were stimulated with their respective ligands, Wnt5a, MSP and IL-17a, using Epo-dependent erythroid colony formation as readout (FIG. 15, Panels b and c, FIG. 7). Epo concentration in blood varies from ˜10 mU/ml in health, to 10,000 mU/ml in severe anemia. […] By contrast. IL-17a mediated a potentiation of adult BM CFU-e colony formation throughout the Epo dose-response curve, giving rise to 4-fold more colonies at lower Epo (50 mU/ml), and to a ˜50% increase in colony formation when added to maximal levels of Epo (FIG. 15, Panels b. and c).
Growth factor perturbations of erythroid colony formation: CFU-e and BFU-e colony formation assays in MethoCult (M3234 STEMCELL Technologies) were carried out on either freshly isolated bone marrow or on embryonic day 13.5 fetal liver cells from Balb/cJ mice. The following growth factors were tested: MSP/MST1 (R&D systems; CAT #6244-MS-025), Recombinant Human/Mouse Wnt-5a (R&D systems; CAT #645-WN-010) and Recombinant Murine IL17 (IL-17A) (PeproTech; CAT 4210-17). In each experiment, a range of Epo concentrations was tested, with or without added additional growth factors (MSP, Wnt5a or IL-17A) as indicated in FIG. 5 and in Extended Data FIG. 12. In addition to Epo, IL-3 (long/mL) and SCF (50ng/ mL) were added to the MethoCult in the case of BFU-e assays. Each condition was tested in quadruplicates, in at least 2 separate experiments. Colonies were scored on day 3 (for CFU-e), day 4 (for late BFU-e) and on day 7 (for early BFU-e) following staining with diaminobenzidine, to highlight hemoglobin expression.

[2] = test system: freshly isolated bone marrow; assay: Epo-dependent erythroid colony formation (CFU-e/BFU-e) in MethoCult, bone marrow; assay type: cell-based, mouse; details: BM progenitors of all stages
Description: Here, IL-17ra is expressed in the EEP region of the bBM SPRING plot (FIG. 4, Panel a) and its corresponding P2 subset (FIG. 4, Panel n), and to a lesser extent in the CEP/P1 region, in addition to its expression by non-erythroid cells. Both Ryk and mst1r are expressed more selectively, principally within the CEP/P1 region of the erythroid trajectory (FIG. 4, Panels a and n). Wnt5a, MSP and IL-17a were used to stimulate Ryk, mst1r and IL-17ra respectively, and measured their interaction with Epo, an essential erythroid cytokine, using colony formation assays (FIG. 4, Panel c). […]
In bone marrow (BM), 1117ra was expressed by EEPs/P2 and to a lesser extent by CEPs/P1, in addition to non-erythroid cells. […] Ryk, Mst1r and IL-17Ra were stimulated with their respective ligands, Wnt5a, MSP and IL-17a, using Epo-dependent erythroid colony formation as readout (FIG. 15, Panels b and c, FIG. 7). […]
Growth factor perturbations of erythroid colony formation: CFU-e and BFU-e colony formation assays in MethoCult (M3234 STEMCELL Technologies) were carried out on either freshly isolated bone marrow or on embryonic day 13.5 fetal liver cells from Balb/cJ mice. […] Colonies were scored on day 3 (for CFU-e), day 4 (for late BFU-e) and on day 7 (for early BFU-e) following staining with diaminobenzidine, to highlight hemoglobin expression.

B1: Wnt5a: Recombinant Human/Mouse Wnt-5a, ligand of Ryk; R&D systems CAT #645-WN-010 (protein)
chain: MAGSAMSSKFFLVALAIFFSFAQVVIEANSWWSLGMNNPVQMSEVYIIGAQPLCSQLAGLSQGQKKLCHLYQDHMQYIGEGAKTGIKECQYQFRHRRWNCSTVDNTSVFGRVMQIGSRETAFTYAVSAAGVVNAMSRACREGELSTCGCSRAARPKDLPRDWLWGGCGDNIDYGYRFAKEFVDARERERIHAKGSYESARILMNLHNNEAGRRTVYNLADVACKCHGVSGSCSLKTCWLQLADFRKVGDALKEKYDSAAAMRLNSRGKLVQVNSRFNSPTTQDLVYIDPSPDYCVRNESTGSLGTQGRLCNKTSEGMDGCELMCCGRGYDQFKTVQTERCHCKFHWCCYVKCKKCTEIVDQFVCK
**Q.** How did the “effect on erythroid colony formation in FL” value ([1]; FL progenitors) turn out when B1 was run?
**A.** consistent and potent inhibitor

**Q.** What about the “effect on erythroid colony formation in BM” value [2] of the same molecule?
**A.** consistent and potent inhibitor

B2: MSP: Macrophage Stimulating Protein, ligand of Mst1r; R&D systems CAT #6244-MS-025 (protein)
chain: MGLWWVTVQPPARRMGWLPLLLLLTQCLGVPGQRSPLNDFQVLRGTELQHLLHAVVPGPWQEDVADAEECAGRCGPLMDCRAFHYNVSSHGCQLLPWTQHSPHTRLRRSGRCDLFQKKDYVRTCIMNNGVGYRGTMATTVGGLPCQAWSHKFPNDHKYTPTLRNGLEENFCRNPDGDPGGPWCYTTDPAVRFQSCGIKSCREAACVWCNGEEYRGAVDRTESGRECQRWDLQHPHQHPFEPGKFLDQGLDDNYCRNPDGSERPWCYTTDPQIEREFCDLPRCGSEAQPRQEATTVSCFRGKGEGYRGTANTTTAGVPCQRWDAQIPHQHRFTPEKYACKDLRENFCRNPDGSEAPWCFTLRPGMRAAFCYQIRRCTDDVRPQDCYHGAGEQYRGTVSKTRKGVQCQRWSAETPHKPQFTFTSEPHAQLEENFCRNPDGDSHGPWCYTMDPRTPFDYCALRRCADDQPPSILDPPDQVQFEKCGKRVDRLDQRRSKLRVVGGHPGNSPWTVSLRNRQGQHFCGGSLVKEQWILTARQCFSSCHMPLTGYEVWLGTLFQNPQHGEPSLQRVPVAKMVCGPSGSQLVLLKLERSVTLNQRVALICLPPEWYVVPPGTKCEIAGWGETKGTGNDTVLNVALLNVISNQECNIKHRGRVRESEMCTEGLLAPVGACEGDYGGPLACFTHNCWVLEGIIIPNRVCARSRWPAVFTRVSVFVDWIHKVMRLG
**Q.** How did the “effect on fetal liver erythropoiesis at low erythropoietin” value ([1]; FL, Epo 50 mU/ml or less) turn out when B2 was run?
**A.** enhance erythropoiesis

**Q.** And the “equivalent increase in Epo concentration” value ([1]; FL, Epo 50 mU/ml, ligand added)?
**A.** 10 fold

**Q.** What about the “number of CFUe (day 3 unifocal) colonies generated, fold” value ([1]; FL, Epo 50 mU/ml, ligand added) of the same molecule?
**A.** over 2 fold

**Q.** What about the “effect on fetal liver erythropoiesis at high Epo” value ([1]; FL, Epo >100 mU/ml) of the same molecule?
**A.** inhibitory; also recorded: inhibit erythropoiesis

**Q.** And the “effect in earlier FL progenitors” value ([1]; FL, earlier progenitors (BFU-e))?
**A.** inhibition

**Q.** And the “effect on erythroid colony formation in other contexts” value ([1]; contexts other than FL at Epo 50 mU/ml (FL and BM))?
**A.** inhibitory

**Q.** What about the “effect on erythroid colony formation in BM” value [2] of the same molecule?
**A.** inhibition; also recorded: inhibitory effect
